Experimental data from US20040214329.

System: phiC31 integrase (Streptomyces phage phiC31?)
Assay: cell_activity
Conditions: E. coli, 1% L-arabinose, 32 C, 60-120 min, resuspended 4:1 in fresh LB

With “phiC31 attB/attP sites flanking expression cassette in pBAD.phiC31.RHB” the activity (% recombination) was greater than 97.
